Consider two molecules from PMC11273223 (Glycobiology, 2024).

One data set addresses T1, TcCGT1 (Trollius chinensis, UniProt A0A4Y5RXX8).
T1 sequence (A0A4Y5RXX8 2-483): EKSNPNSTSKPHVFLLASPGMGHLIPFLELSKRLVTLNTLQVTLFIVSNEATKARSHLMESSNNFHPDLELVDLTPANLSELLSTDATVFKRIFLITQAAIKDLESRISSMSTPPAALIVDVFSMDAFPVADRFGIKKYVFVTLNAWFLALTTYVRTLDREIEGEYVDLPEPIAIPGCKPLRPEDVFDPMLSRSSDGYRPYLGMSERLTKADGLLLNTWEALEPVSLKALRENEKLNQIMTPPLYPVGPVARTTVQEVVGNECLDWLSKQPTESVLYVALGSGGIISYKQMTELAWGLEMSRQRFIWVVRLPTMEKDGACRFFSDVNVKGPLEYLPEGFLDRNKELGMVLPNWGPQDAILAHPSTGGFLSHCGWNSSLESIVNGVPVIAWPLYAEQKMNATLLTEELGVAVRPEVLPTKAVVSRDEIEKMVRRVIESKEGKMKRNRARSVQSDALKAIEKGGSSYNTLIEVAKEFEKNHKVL
In words: HPLC end-point turnover to O- and C-glucosides. It counts as biochemical. The note with it: 50 μM aloesone, 200 μM UDP-Glc, 50 mM HEPES, pH 7.4, 30 °C, overnight.

Substrate in data set [1]: CC(=O)Cc1cc(=O)c2c(C)cc(O)cc2o1
The experiment in a line: HPLC initial rates of O-glucoside formation, Michaelis-Menten fit. It counts as biochemical, Arabidopsis thaliana. The note with it: 0.8 mM UDP-Glc, 50 mM HEPES, 50 mM NaCl, pH 7.4.

Take `CC(=O)Cc1cc(=O)c2c(C)cc(O)cc2o1` [aloesone, 2-acetonyl-7-hydroxy-5-methylchromone]: the “HPLC end-point turnover to O- and C-glucosides” value at TcCGT1 was “both C-and O-glucosides were detected in the reaction with TcCGT1”.

B1: UGT71C1 (Arabidopsis thaliana) (protein)
chain: GKQEDAELVIIPFPFSGHILATIELAKRLISQDNPRIHTITILYWGLPFIPQADTIAFLRSLVKNEPRIRLVTLPEVQDPPPMELFVEFAESYILEYVKKMVPIIREALSTLLSSRDESGSVRVAGLVLDFFCVPMIDVGNEFNLPSYIFLTCSAGFLGMMKYLPERHREIKSEFNRSFNEELNLIPGYVNSVPTKVLPSGLFMKETYEPWVELAERFPEAKGILVNSYTALEPNGFKYFDRCPDNYPTIYPIGPILCSNDRPNLDSSERDRIITWLDDQPESSVVFLCFGSLKNLSATQINEIAQALEIVDCKFIWSFRTNPKEYASPYEALPHGFMDRVMDQGIVCGWAPQVEILAHKAVGGFVSHCGWNSILESLGFGVPIATWPMYAEQQLNAFTMVKELGLALEMRLDYVSEDGDIVKADEIAGTVRSLMDGVDVPKSKVKEIAEAGKEAVDGGSSFLAVKRFIGDLIDGVSISK
Turning to B1, in data set [1], the Km (as a rule, the substrate concentration at which the rate is half of its maximum) came out at 50.54 ± 7.29 µM; the kcat (in general, the number of substrate molecules converted per active site and unit of time at saturation) is 0.27 ± 0.01 s⁻¹; the kcat/Km (in general, the second-order rate constant that governs catalysis at low substrate concentration) worked out at 5000 M⁻¹ s⁻¹.
